Data on 1 molecule can be found in patent publication US20160303255, “COMPOSITIONS AND METHODS FOR TREATMENT OF MUSCULAR DYSTROPHY” (CONSIGLIO NAZIONALE DELLE RICHERCHE, published 2016).

The data set addresses JZif1 (artificial (human Zif268/EGR1 derived), UniProt P18146 SEQ:1-543). Put plainly: cell_activity; luciferase induction in HeLa, pXP-Luc (about 318 bp human utrophin promoter A); also active in C2C7 (FIG. 8). Conditions: tags: none. Here is the method: To investigate the ability of JZif1, JZif2, Vp16-CJ7-UtroUp, Vp16-Bagly and Vp16-Jazz to upregulate (i.e., increase) expression from the utrophin promoter “A”, their ability to drive expression of a luciferase reporter gene placed downstream of a utrophin promoter “A” fragment was tested.
To test the ability of these artificial transcription factors to increase expression from the utrophin promoter “A” in human cells, HeLa cells were co-transfected with a plasmid carrying JZif1, JZif2, Vp16-CJ7-UtroUp, Vp16-Bagly or Vp16-Jazz under control of the cytomegalovirus (CMV) promoter together with the luciferase reporter construct plasmid pXP-Luc (pXP). JZif1, JZif2, Vp16-CJ7-UtroUp, Vp16-Bagly and Vp16-Jazz were each able to increase luciferase expression relative to controls (FIG. 7). […] By comparison, no increase in luciferase expression was detected when the pXP plasmid was co-transfected with a plasmid carrying the zinc finger domain of Jazz without a transcriptional activation domain, with a plasmid carrying the genomically-encoded human transcription factor Zif268's transcription activation domain without its zinc finger motifs, or with a plasmid carrying the transcriptional activation domain of Vp16 without a zinc finger DNA binding domain, which served as controls (FIG. 7). […]

Where only a bound is given, the exact number is not on record here.

Chain of JZif1 (P18146 other isoform, or with tags, fused parts or gaps): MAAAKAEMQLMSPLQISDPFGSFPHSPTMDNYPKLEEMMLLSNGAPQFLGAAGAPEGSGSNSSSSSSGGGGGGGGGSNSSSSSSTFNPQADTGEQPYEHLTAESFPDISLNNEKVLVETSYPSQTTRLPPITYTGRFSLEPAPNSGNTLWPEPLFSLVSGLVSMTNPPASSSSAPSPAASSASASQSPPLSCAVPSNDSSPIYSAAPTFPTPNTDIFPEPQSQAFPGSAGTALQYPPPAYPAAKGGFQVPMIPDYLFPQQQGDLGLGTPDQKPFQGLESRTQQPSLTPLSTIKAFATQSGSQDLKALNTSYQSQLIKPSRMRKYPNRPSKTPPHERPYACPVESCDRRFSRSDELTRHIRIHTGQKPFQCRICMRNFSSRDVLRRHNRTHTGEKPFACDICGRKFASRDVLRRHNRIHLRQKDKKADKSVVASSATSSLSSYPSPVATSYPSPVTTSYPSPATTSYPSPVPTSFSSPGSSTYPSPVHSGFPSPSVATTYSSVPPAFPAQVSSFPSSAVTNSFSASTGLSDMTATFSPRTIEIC

B1: Jazz/JZif1 target in human utrophin promoter A (dsDNA)
DNA 1: GCTGCTGCG
DNA 2: CGCAGCAGC
As to B1, the activity is over 20 fold.
